Assay results from the nanobody polyreactivity screen of Harvey et al. (2022).

Assay: yeast display, Sf9 membrane polyspecificity reagent, FACS + sequencing; frameworks hold sequencing errors
How it was run: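 A nanobody's polyreactivity label depends on the gate it was sorted from. Yeast display cells were stained with 10% biotinylated, detergent-solubilized Sf9 membrane reagent for 1 hour at 4 °C, enriched on streptavidin microbeads and sorted by FACS. The low and high (top ~1%) gates were set on anti-HA fluorescence for expression and streptavidin fluorescence for reagent binding.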

| Sequence | polyreactivity (PSR sort gate) |
| --- | --- |
| QVQLVESGRGLVQAGGSLRLSSAASGSTFHQYTMGWYRQAPGKERELVAGITYRGGSTYADSVKGLFTISRDNAKNTVYLQMNSLKPDDTAVYYCNATPDSVRWDYALSVVRYDYWGQGTQVTVSS | low polyreactivity |
| QVQLVESGRGLVQAGGSLRVSCAASGSILSINGMGWYRQAPGKERELVATIDGSDGSTFYADSVKGRFTISRDNAKNTVYLQMNSLKPEDTAVYYCAAENFWQTKEYDYWGQGTQVTVSS | low polyreactivity |
| QVQLVESGRGLVQAGGTLRLSCAPYGRTFYPIAMAWYRQAPGKDRELVAAISYSGGSTYYADSVKGRFTISRDNAKNTVYLQMNRLKPEDTAVYDCAAAFSRDSRDLWGQGTQVTVSS | low polyreactivity |
| QVQLVESGRGLVQAGVSLRLSCAASGSTFGYYAMGWYRQAPGKERELVAAISYSGGSTYYADSVKGRFTISRDNAKNTVYLQMNSLKQEDTAVYYCAARFTRQMYYWGQGTQVNVSS | high polyreactivity |
| QVQLVESGRRLVQAGGSLRLSCAASGRTFGFYAMGWYRQAPGKERELVAGITWSGGSTYYADSVKGRFTISRDNAKNTVYLQMNSLKPEDTAVYYCAADVWWYHYLLFDSWGQGTQVTVSS | low polyreactivity |
| QVQLVESGSGLVQAGGILRLSCAASGFIFDAYAMGWYRQAPGKERELVAGISIGGRTNYADSVTGRFTISRDNALNTVYLQMTSLKPEDTAVYYCAARNYRYYYGSYYRGPITNYEYWGQGNQVTVSS | low polyreactivity |
| QVQLVESGVCIVEAGGSLRLSCAASGRSLKVYAMGWYRQAPGKERELVAAISQRGGSTYYADSVKGRFTISRDNAKNSVYLQMNSRKPEDTAVYYCAARYPYQSYLYRFDYWGQGTQVTVSS | high polyreactivity |
| QVQLVESGVCLVQAGGSLRLICAASGNIFYGYAMGWYRQAPGKESELVAAISTGGSTNYADSVKGRFTISRDNAKNTVYLQMNSLKPVDTAVYYCASDDPQQYGVRQLGYDSWGQVTQVTVSS | low polyreactivity |
| QVQLVESGVCLVQAGGSLRLSCAATGFTLSTNALGWYRQEPGKESELVAVISGGDSTSYADSVKGRFTISRDNAKNTVYLQMNSLKPEETAVYYCAKVYRRYTSGYDYWGQGTQVTVSS | high polyreactivity |
| QVQLVESGVCLVQAGGSLRLSCASSGRIFKIYMGWYRQAPGKERELVAAISSGGRTYYADSVKGRFTISRDNAKNTVYLQMNSLKPEDTAVYYCAAEGTYYFRYPGPEDYDYWGLGTQVTVSS | high polyreactivity |
| QVQLVESGVCLVQAGGSLRLSSAASGRTLDQNTMGRYRQAPGKERELVASITYSGGITYYADSVKGRFTISSDNAKNTVYLQMNSLKPEATAVYYCAAQEHGTYDNILGEPLDYWGQGTQVTVSS | low polyreactivity |
| QVQLVESGVCLVQAGRSLRLSCAASGRTFGYYAMGWYRQAPGKERELVAGITLSGGSTYYADSVKGRFTISRDNAKNTVYLQMNSLKPDDTAVYYCAARRRGRAGRDDYWGQGTQVTVSS | high polyreactivity |
| QVQLVESGVGIVQAGGSHRLSCAASGRICVRNAMGWYRQAPGKERQLVAAISWSGGTNYADSVKGRFTISRDNAKNTVYLQMNSLKPEDTAVYYCAALSVWSYYTYYYWGQGTQVTVSS | high polyreactivity |
| QVQLVESGVGIVQAGGSLRLSCAASGITFWRYAMRWYRQARGKERELVAAINSGGGTKYADSVQGRFTISRDNAKNTDYLQMNSLKPEDTAVYYCAAVSRYGWYDYCGQGTQVTVSS | high polyreactivity |
| QVQLVESGVGLDKAGGSLRLISAASGRILWYNAMGLYRQAPGKEREFVARISISTASTYYADSVKGRFTISRDNAKNTVFLQMNSLKPEDTAVYYCAGKPWRTVPYYYWGQGTQVSVSS | high polyreactivity |
| QVQLVESGVGLDQAGGSLRLSCAASGFTFYSNAMGWYRQAPGKERELVAAITGRGGRTYYADSVKGRFTISRDNAKNTVYLLMNSLKPEDTAVYYCAAVYHVSTWGGRYYFRQGYDYWGQGTQVTVSS | high polyreactivity |
| QVQLVESGVGLDQAGGSLRLSCAASGSTFASYAMGWYRQAPGKERELVAAITNGGSTNYADSVKGRFTISRDNAKNTVYLLMNSLKPEDTAVYYCAAYDGFPRRYDYWGQGTQVTVSS | low polyreactivity |
| QVQLVESGVGLLQAGGSLRLSCAASGFIFSFYAMGWYRQAPGKERELVAGISQSGGRTYYADSVKGRFTISRDNAKNNVFLQMNSLKPEDTAVYYCAAQWYYSLYVSGDYWGQGTQVTVSS | high polyreactivity |
| QVQLVESGVGLVHAGGSLRLSCAASGITFDHYTMGWYRQAPGKEREFVAAITGSGVRTYYADSVKVRFTISRDNAKNTVYLQMNSLKPEVTAVYYCAAVWRYTGKYWGQGTQVTISS | high polyreactivity |
| QVQLVESGVGLVHAGGSLRLSCAASGSTFYANTMGWYIQAPGKERELVAAISQSGGSTYYADSVKGRFSISRDNAKNTVYLQMNSLKPEDTAVYYCAARRLPRKERKLYYWGQGTQVTVSS | high polyreactivity |
| QVQLVESGVGLVQAGGILRLSCAAYGTFGSYAMGWYRQAPGKERELVASISGTGGDTYYADSVKGRFTISRDNAKNTVYLQMNSLKPEDTAVYDCAARWSRYWYLGSWLYDYWGQGTQVSVSS | high polyreactivity |
| QVQLVESGVGLVQAGGSHRLSCAASGSILAGNVMGWYRQAPGKERELVAAITRSGTSTYYADSVKGRFTISRDNAKNTVYLQMNSLKPEDTAVYYCNSVRRVGFRGRYTDGYWGQGTQVTVSS | high polyreactivity |

| Sequence | polyreactivity (PSR sort gate) |
| --- | --- |
| QVQLVESGVGLVQAGGSLRLICAASGSTFGVYAMGWYRQAPGKERELVARITSGGSTYYADSVKGRFTISRDNAKNTVYLQMNSLKPEDTAVYYCAAVYRRTRSWKFDYWGQGTQVTVSS | high polyreactivity |
| QVQLVESGVGLVQAGGSLRLIWAASGRTFYRNVMGWYRQAPGKERELVAAISWSGGRTYYADSVKGRFTISRDNAKNTVYLQMNSLKPEDTAVYYCAARYRTLDGEVDYWGQGTQVTVSS | high polyreactivity |
| QVQLVESGVGLVQAGGSLRLRCAASARIFGWYTMGWNRQSPGKERELVADINFGGSTYYADSVKGRFTISRDNAKNTVYLLMKSLKSEYTAVFYCNADYSVYIIADEYDYWGQGTQVTVSS | low polyreactivity |
| QVQLVESGVGLVQAGGSLRLRCAASGITFGTYPMGWYRQAPGKEREFVAGYYADSVKGRFTISRDNAKNTVYLQMNSLKPEDTAVYYCAADYLYHDDVDYWGQGTQVTVSS | low polyreactivity |
| QVQLVESGVGLVQAGGSLRLRCAASGSIFEGNGMGWYRQAPGKERELVASITRSGGSTYDADSVKGRFTISRDNAQNTVYVQMNSLKPEDTAVYYCAAKGTTYGLTIRWYPYLHGYNYWGQGTQVTVSS | low polyreactivity |
| QVQLVESGVGLVQAGGSLRLSCAASGFTFRRYAMGWYRQAPGKERELVAAITSSGGNTYYADSVKGRFTISRDNAKNTVYLQMNSLKPEDTAVYYCAKRAFYSSSYDYWGQGTQVSVSS | high polyreactivity |
| QVQLVESGVGLVQAGGSLRLSCAASGIIFPGYVMGWYRQAPGKERELVAAISSGGRTYYADSVKGRFTISRDNAKNTVSLQMNSLKPEDTAVYYCAAGGRARTYYYWGQGTQVTVSS | high polyreactivity |
| QVQLVESGVGLVQAGGSLRLSCAASGIIFRSYAMGWYRQAPGKERELVAAITSSGGRTYYADSVKGRFTISRDNAKNTVYLQMNSLKPEDTAVYYCAAKTYQQQIVRPMYYWGQGTQVTVSS | high polyreactivity |
| QVQLVESGVGLVQAGGSLRLSCAASGITFDYYAMGLYRQAPGKERELVAAIRKSGGSTYYADSVKGRFTISRDNAKNTVYLQMNSLKPEDTAVYYCAAGVRSPFRGGYYWGQGTQVTVSS | high polyreactivity |
| QVQLVESGVGLVQAGGSLRLSCAASGITFPGYAMGWYRQAPGKERELVAVIRKSGTSTYYADSVKGRFTISRDNAKNTVYLQMNSLKPEDTAVYYCAAGGPSTLDDYWGQGTQVTVSS | low polyreactivity |
| QVQLVESGVGLVQAGGSLRLSCAASGLIFRPYTMGWDRQAPGKERELVATITGSGASTNYADSVKGRFTISRDNAKNTLYLQMNSLKPEDTAVYYCKGRSYSRMYYWGQGTQVTVSS | high polyreactivity |
| QVQLVESGVGLVQAGGSLRLSCAASGRIFAYNAMGWYRQAPGKERELVAAISSSDDDTYYADSVKGRFTISRDNAKNTVYLQMNSLKPEDTAGYYCAAEWDTDRLWAGPRGSLYDYWGQGTQVTVSS | high polyreactivity |
| QVQLVESGVGLVQAGGSLRLSCAASGRIFAYYAMGWYRQAPGKERELVAAISSGGTTNYADSVKGRFTISRDNAKNTVYLQMNSLKPEDTAVYYCNADGWRRSRQYYYWGQGTQVTVSS | low polyreactivity |
| QVQLVESGVGLVQAGGSLRLSCAASGRIFNRNAMGWYRQAPGKERELVAAISHSVGSTYADSVKGRFTLSRDNAKNTVYLQMNSLKPEDTAVYYCAAKYYFEWNSALDYWGQGTQVTVSS | low polyreactivity |
| QVQLVESGVGLVQAGGSLRLSCAASGRIFRYYTMGRYRHAPGKERELVAAITKSGGRTYYADSVKGRFTISRDTANNTVYLQMNSLKPEDTAVYYCAARRLYWGQGTQVTVSS | high polyreactivity |
| QVQLVESGVGLVQAGGSLRLSCAASGRIFSRYTMGWYRQAPGKERELVAAIRYSGGLTYYADSVKGRFTISRDNAKNTVYLQMNSLKPEDTAVYYCATQVYLGYDKLYGYWGQGTQVTVSS | high polyreactivity |
| QVQLVESGVGLVQAGGSLRLSCAASGRIFTYYAMGWYRQAPGKERELVAVISSVGGTYYADSVKGRFTISRDNAKNTVYLQMNSLKPEDTAVYYCAVGKIWSRRSSTSRFGYWGQGTQVTVSS | high polyreactivity |
| QVQLVESGVGLVQAGGSLRLSCAASGRSFGPYAMGWYSQAPGKERELVAAISSSGGSTYYADSVKGRFTISRDNAKNNVYLQMNSLKPEDTAVYYCATYFARGYNSWGQGTQVTVSS | high polyreactivity |
| QVQLVESGVGLVQAGGSLRLSCAASGRTFGSNAMGWYRQAPGKERELVAAISRVGSTYYADSVKGRFTISRDNAKNTVYLQMNSLKPEDTAVYYCPYDYWGQGTQVTVSS | low polyreactivity |
| QVQLVESGVGLVQAGGSLRLSCAASGRTFNSYAMGWYRQAPGKERELVATISSRGGNTFYADSLKGRCTISRDNAKNTVYLQMNSLKPEDTAVYYCAARRGVRKYPSAGYEYWGQGTQVTVSS | high polyreactivity |
| QVQLVESGVGLVQAGGSLRLSCAASGRTFSRNAMGWYRQSPGKERELVATISRGGGITFYADSVKGRFTISRDNAKNNVYLQMKSLKPEDTAVYYCNADVRYVGLRRIVDYWGLGTQVTVSS | high polyreactivity |
